First the molecules themselves.
B1: Azoarcus group I ribozyme (parent)
chain: GUGCCUUGCGCCGGGAAACCACGCAAGGGAUGGUGUCAAAUUCGGCGAAACCUAAGCGCCCGCCCGGGCGUAUGGCAACGCCGAGCCAAGCUUCGGCGCCUGCGCCGAUGAAGGUGUAGAGACUAGACGGCACCCACCUAAGGCAAACGCUAUGGUGAAGGCAUAGUCCAGGGAGUGGCGAAAGUCACACAAACCGG

In this data set the parent is B1. Description: reverse-splicing fitness (ratio to wild type); higher = more active; in vitro selection; Mg2+ level not given. The method in brief:
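An in vitro group I ribozyme library with randomized positions was T7-transcribed and gel-purified. In triplicate, 10 pmol RNA in EPPS pH 7.5 was reacted with 50 pmoles of a 30-nt RNA substrate for 1 h at 37 °C across several added MgCl2 levels (1–48 mM), then stopped with EDTA. Products were reverse transcribed from a substrate-complementary primer, PCR-amplified and sequenced (HiSeq 4000). Fitness is a variant's read proportion after selection over that before, normalised to wild type.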
For C82U A111C A120C A145U C150U C169A U176A, the reverse-splicing fitness stood at 0.0117.

Consider C82A A111G C150G C169G U176A, for which the reverse-splicing fitness was 0.00836. For the variant C82U A111U A145U C150U U176A, the reverse-splicing fitness was determined as 0.0674. For C82A A111C A120G A145C C150A U176C, the reverse-splicing fitness was found to be 0.0105. With C82U A111G A145C C150U C169G U176C the figure was 0.00977; with C82U A111U A120U A145C C150G U176G, 0.00213.

As to A111C A120C A145U C150G C169A U176C, the reverse-splicing fitness was 0.00906. Consider A111G A145U C150G C169G U176G, for which the reverse-splicing fitness came to 0.00482. Regarding C169G U176C, the reverse-splicing fitness worked out at 0.137. As to C82G A111G A120U A145U C150G C169G U176C, the reverse-splicing fitness worked out at 0.00256. Take C82U A111U A145C C150A C169U U176A: the reverse-splicing fitness came to 0.0138. As for C82G A111C A120C C150G C169A, the reverse-splicing fitness worked out at 0.00742.

In the case of C82A A111C A120C A145C C150A C169A U176C, the reverse-splicing fitness amounted to 0.00935.

On to A111G C169U, for which the reverse-splicing fitness stood at 0.196. For C82U A111U A145G C150A U176C, the reverse-splicing fitness was found to be 0.0426. Take C82A A120C C169U U176A: the reverse-splicing fitness turned out to be 0.0172. Consider C82A A111C A120C C150U C169A, for which the reverse-splicing fitness turned out to be 0.0121. With C82A A111C A145G C150G C169A U176C the figure was 0.0134; with C82U A111C A120U A145U C150A C169G U176C, 0.003; with C82A A111G A145G C150G C169U U176G, 0.00825. In the case of A111C A120G A145C C150A C169A, the reverse-splicing fitness worked out at 0.0103. A120U C169G U176C: the reverse-splicing fitness came to 0.0915. In the case of A111C A145U C150A C169G U176C, the reverse-splicing fitness turned out to be 0.0203.

As for A111C A120G A145G C150U C169U U176A, the reverse-splicing fitness is 0.0338.

Take C82A A111G A120G A145U C169G U176C: the reverse-splicing fitness turned out to be 0.0158. Take C82A A111C C150A C169U U176A: the reverse-splicing fitness is 0.0161. For C82A A111G A145U C150G C169G, the reverse-splicing fitness was found to be 0.00749. A111G A120C A145C C150U U176C: the reverse-splicing fitness was determined as 0.158.

Turning to C82G A111U A120G C169G U176G, the reverse-splicing fitness worked out at 0.00448. Regarding C82U A111C A120U C150G C169A U176G, the reverse-splicing fitness was 0.00261.

In the case of A120C A145C C150G C169A U176C, the reverse-splicing fitness came out at 0.00596.

Consider C82U A111U A145U C150A C169U U176G, for which the reverse-splicing fitness turned out to be 0.00593. As to C82A A120G C150U C169G U176A, the reverse-splicing fitness came out at 0.0162.

Regarding C82A A111C A120C A145U C169A U176G, the reverse-splicing fitness worked out at 0.00807. For A120G A145C C150A C169U U176A the value was 0.0398. For C82A A111U A120U C169U U176C, the reverse-splicing fitness is 0.00461.

For the variant A111C A120G A145U C150A C169U U176G, the reverse-splicing fitness came to 0.0045. For A111G A120C C169U U176C the value was 0.0857. Consider A111U A145G C150U U176C, for which the reverse-splicing fitness worked out at 0.692.

C82U A120U A145U C150A C169U: the reverse-splicing fitness is 0.0022.

In the case of C82A A111U A120G A145C C150U C169A U176A, the reverse-splicing fitness worked out at 0.0127. C82A A120U C150G C169G U176G: the reverse-splicing fitness was 0.00232.

Regarding C82A A120G A145C C169G U176G, the reverse-splicing fitness was determined as 0.00403. For the variant C82G A111G A120C A145U C150U C169A U176A, the reverse-splicing fitness stood at 0.0171. Consider C82U A111G A120G A145G C150U C169G, for which the reverse-splicing fitness turned out to be 0.0111. C82A A111G A120U A145C C150G U176C: the reverse-splicing fitness was determined as 0.00393. As to A111C C169A U176G, the reverse-splicing fitness was determined as 0.00548. Turning to A120G A145C C150G U176C, the reverse-splicing fitness was 0.0556. As for C82A A111U C150G C169A U176C, the reverse-splicing fitness stood at 0.0105. With C82G A111C C150A C169G U176A the figure was 0.0173; with C82U A120G A145G C150G C169G, 0.00862.

Consider A111G A145G C169A, for which the reverse-splicing fitness was found to be 0.053. For C82A A111U A120U C150A C169A the value was 0.00615. With A111U A145G U176G the figure was 0.267. With C82A A111G A120C A145C C150A C169U U176A, the reverse-splicing fitness was determined as 0.0138. With C82G A120U A145G C150A U176A the figure was 0.0118; with A120U A145C C150A U176G, 0.0538. C82U A111U A120C C150U C169U: the reverse-splicing fitness worked out at 0.0134. For C82G A111G A120U A145U C150A C169A U176A the value was 0.00256. Take C82G A111G A120C A145U C150A C169A U176G: the reverse-splicing fitness is 0.0061. In the case of C82U A120U C150G C169U U176A, the reverse-splicing fitness is 0.00334.

As for C82G A120C A145U C150U C169G U176C, the reverse-splicing fitness was 0.015. For C82A A111C A120G A145U C150G C169G U176G the value was 0.00527; for A111G A120C A145C C169A U176G, 0.00335.

As for C82A A120U A145C C150U, the reverse-splicing fitness is 0.0294. Turning to C82U A111C A120G A145U C150U C169U U176G, the reverse-splicing fitness amounted to 0.00431.

Take A111U A120G A145U C169G U176G: the reverse-splicing fitness stood at 0.00486.

Regarding C82G A111G A120U A145U C150U C169G, the reverse-splicing fitness worked out at 0.00324. For the variant C82A A111G A120C A145U C150U C169A U176C, the reverse-splicing fitness came out at 0.0127. For C82G A111G A120U A145C C150A C169A U176G the value was 0.00204. Take C82A A111C A120G A145U C150A C169U U176C: the reverse-splicing fitness worked out at 0.0127. C82G A111U A145U C150A: the reverse-splicing fitness was found to be 0.0284. C82U A111U A120C A145C C150G C169G U176G: the reverse-splicing fitness stood at 0.0044.

Regarding C82G A111C A145U C169G U176G, the reverse-splicing fitness was 0.00766. On to C82U A111G A120U A145U C150A C169A U176G, for which the reverse-splicing fitness amounted to 0.00195.

For the variant C82U A111U A120C A145U C150G C169A U176A, the reverse-splicing fitness amounted to 0.00915. Turning to A111G A145C C169U U176A, the reverse-splicing fitness turned out to be 0.0432. For C82U A111C A120G C150G C169U U176G the value was 0.00505; for A111C A120U A145C C169G, 0.0517; for A111G A120U A145U C169A U176A, 0.00236. As for C82A A111G A120U A145G C150G C169U, the reverse-splicing fitness was 0.00766. Turning to C82U A111C A145G C150U C169A U176A, the reverse-splicing fitness worked out at 0.0141. As to C82A A111G A120C A145U U176C, the reverse-splicing fitness turned out to be 0.0247. With C82U A111C A120C A145U C150A C169G the figure was 0.00745.

Source of the values: the RNAGym collection of RNA variant scans (doi:10.1093/molbev/msab373).
